These sequences were tested against HLA-A*01:01 (assay: IEDB peptide-MHC binding, purified MHC/competitive/radioactivity; ≥ and ≤ were set here for values at or beyond the usual limits of such assays). Details: source organism: Clostridium botulinum.

Q: CSNDKSLVY was tested. Which IC50 did it give?
A: 115 nM

Q: FLDQWWTEY was tested. Which IC50 did it give?
A: 1.1 nM

Q: With FVEDPNGKY as the sequence, how does the IC50 read?
A: 677 nM

Q: For IIEDQYNRY, which IC50 is on record?
A: 179 nM

Q: How did the IC50 turn out when ISDESYRVY was run?
A: 183 nM

Q: How did the IC50 turn out when LTYKYNQFY was run?
A: 12 nM

Q: How did the IC50 turn out when TSIPFLHEY was run?
A: 618 nM

Q: How did the IC50 turn out when TSPYELSLY was run?
A: 255 nM

Same assay, conditions: source organism: Clostridium perfringens

Q: Which IC50 does the source give for STTAGPNEY here?
A: 785 nM

Same assay, conditions: source organism: Hepacivirus hominis

Q: How did the IC50 turn out when LTPRCMVDY was run?
A: 538 nM

Q: VQDCNCSIY was tested. Which IC50 did it give?
A: 78 nM

Same assay, conditions: source organism: Hepatitis B virus adw/Okinawa/PODW282

Q: For LTKQYLNLY, which IC50 is on record?
A: 84 nM

Q: For PTTGRTSLY, which IC50 is on record?
A: 54 nM

Same assay, conditions: source organism: Homo sapiens

Q: ETLEEITGY was tested. Which IC50 did it give?
A: 984 nM

Q: With GTQLFEDNY as the sequence, how does the IC50 read?
A: 237 nM

Q: TQDLVQEKY was tested. Which IC50 did it give?
A: 20 nM

Q: With YTAVVPLVY as the sequence, how does the IC50 read?
A: 1.5 nM

Same assay, conditions: source organism: Mycobacterium tuberculosis

Q: Which IC50 does the source give for HTEFEGQVY here?
A: 6.8 nM

Q: For RSARASSRY, which IC50 is on record?
A: 622 nM

Q: Which IC50 does the source give for VAEGDTVIY here?
A: 840 nM

Same assay, conditions: source organism: Neisseria gonorrhoeae

Q: Which IC50 does the source give for ASADKPYSY here?
A: 280 nM

Q: For GTATYLPPY, which IC50 is on record?
A: 120 nM

Q: How did the IC50 turn out when HSAEALQKY was run?
A: 398 nM

Q: KAEVHTFYY was tested. Which IC50 did it give?
A: 233 nM

Q: Which IC50 does the source give for LSGNGHFHY here?
A: 125 nM

Q: Which IC50 does the source give for LTAGLDFAY here?
A: 26 nM

Q: Which IC50 does the source give for LTEIDIRDY here?
A: 65 nM

Q: How did the IC50 turn out when NTFVQANLY was run?
A: 492 nM

Each sequence was assayed against HLA-A*01:01 (assay: IEDB peptide-MHC binding, purified MHC/competitive/radioactivity; filed as Kd, often an IC50 or EC50 that approximates it; ≥ and ≤ were set here for values at or beyond the usual limits of such assays). Details: source organism: Clostridium botulinum.

Q: For DMIVDAIPY, which Kd is on record?
A: ≥ 50000 nM

Q: With GMQNIYIKY as the sequence, how does the Kd read?
A: 2470 nM

Q: For ITYFKKIYY, which Kd is on record?
A: 2330 nM

Q: How did the Kd turn out when KSKSIFFEY was run?
A: 7060 nM

Q: With LHEYKQGDY as the sequence, how does the Kd read?
A: ≥ 50000 nM

Q: How did the Kd turn out when RNEFSNVEY was run?
A: ≥ 50000 nM

Same assay, conditions: source organism: Clostridium perfringens

Q: With LGDGVKDHY as the sequence, how does the Kd read?
A: 11600 nM

Same assay, conditions: source organism: Hepacivirus hominis

Q: How did the Kd turn out when FTIFKIRMY was run?
A: 3500 nM

Same assay, conditions: source organism: Hepatitis B virus adw/Okinawa/PODW282

Q: PLDKGIKPY was tested. Which Kd did it give?
A: 2210 nM

Same assay, conditions: source organism: Hepatitis C virus (isolate Japanese)

Q: Which Kd does the source give for PGDPPQPEY here?
A: ≥ 50000 nM

Same assay, conditions: source organism: Human immunodeficiency virus type 1 (NEW YORK-5 ISOLATE)

Q: How did the Kd turn out when ETKLGKAGY was run?
A: ≥ 42000 nM

Q: How did the Kd turn out when ETPGIRYQY was run?
A: 2150 nM

Same assay, conditions: source organism: Human papillomavirus 16

Q: For FEDPTRRPY, which Kd is on record?
A: ≥ 50000 nM

Q: VCDKCLKFY was tested. Which Kd did it give?
A: ≥ 50000 nM

Same assay, conditions: source organism: Influenza A virus (A/Texas/1/1977(H3N2))

Q: For AFDERRNKY, which Kd is on record?
A: ≥ 50000 nM

Same assay, conditions: source organism: Mycobacterium tuberculosis

Q: Which Kd does the source give for SSLGLPVSY here?
A: 9660 nM

Q: VTPEQRPLY was tested. Which Kd did it give?
A: 2710 nM

Same assay, conditions: source organism: Neisseria gonorrhoeae

Q: DPEMADVTY was tested. Which Kd did it give?
A: ≥ 50000 nM

Q: How did the Kd turn out when EKEVVPDFY was run?
A: ≥ 50000 nM

Q: With FDEKNQDKY as the sequence, how does the Kd read?
A: ≥ 50000 nM

Q: For GKDLYYKNY, which Kd is on record?
A: ≥ 50000 nM

Q: Which Kd does the source give for GTYDYWAGY here?
A: 1180 nM

Q: Which Kd does the source give for IRDMTEKQY here?
A: ≥ 50000 nM

Q: How did the Kd turn out when KSWQEWNIY was run?
A: 17900 nM

Q: With KTQNGKKQY as the sequence, how does the Kd read?
A: ≥ 50000 nM

Q: For LSQDALTNY, which Kd is on record?
A: 2060 nM

Q: How did the Kd turn out when QNDYDEDDY was run?
A: 14000 nM

Q: Which Kd does the source give for QRESTAMAY here?
A: ≥ 50000 nM

Q: For RPDLSLRSY, which Kd is on record?
A: ≥ 50000 nM

Q: For RSYNLKLSY, which Kd is on record?
A: 6220 nM

Q: TTRPGLAGY was tested. Which Kd did it give?
A: ≥ 35000 nM

Q: VREFPEDQY was tested. Which Kd did it give?
A: ≥ 50000 nM

Q: For YDEDDYSYY, which Kd is on record?
A: ≥ 50000 nM
